The source of these data is US20230220042A1 (SHANGHAI JIAO TONG UNIVERSITY SCHOOL OF MEDICINE, published 2023).

The target of experiment [1] is Biotin-FcγRIIB (human) (UniProt P31994). In words: FACS sorting of displayed Fc library on biotin-FcγRIIB, NGS.
The target of experiment [2] is T1, Biotin-FcγRIIB (human, UniProt P31994 43-217, limits assumed, biotin-labelled).
T1 construct: Bought, biotin-labelled; used at 1 µg/ml for staining and sorting; also called human FcγRIIB; CD32b
T1 sequence (looked up): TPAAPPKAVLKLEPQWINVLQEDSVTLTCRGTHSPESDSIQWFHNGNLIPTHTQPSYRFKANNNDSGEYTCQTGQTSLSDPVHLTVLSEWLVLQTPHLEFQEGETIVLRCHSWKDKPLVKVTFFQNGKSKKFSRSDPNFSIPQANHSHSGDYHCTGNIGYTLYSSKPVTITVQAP
The experiment can be described thus: magnetic sorting on biotin-FcγRIIB with unlabelled activating FcγRs, NGS; LibraryMix #3. The procedure: 3T3 cells were collected by trypsin digestion, and a single cell suspension was prepared. […] The cells were incubated for 15 minutes on ice and then washed twice with MACS buffer and re-suspended in 100 μl MACS buffer. Twenty-five μl anti-Biotin magnetic beads were added, and the cells were incubated for 15 minutes on ice and then washed once with MACS buffer and re-suspended to 500 μl, and added to the LS column put in the magnetic field. The effluent was collected, washed with 3 mL of MACS buffer and collected; The LS column was then removed out of the magnetic field, and 5 mL of MACS buffer was used to rapidly elute the remaining cells from the sorting column to collect positive cells, which are the high I/A ratio cells.

The target of experiment [3] is T1, Biotin-FcγRIIB. In words: FACS sorting of displayed Fc library on biotin-FcγRIIB, NGS.
Experiment [4] addresses T1, Biotin-FcγRIIB. The experiment can be described thus: FACS sorting of displayed Fc library on biotin-FcγRIIB, NGS; reference P271G.

Molecule “human IgG2 anti-mouse CD40 surface displayed antibody, Fc mutant S298R” registered an Increased factor b Site 2 (point mutation/wild-type) in experiment [1] of 0.8.
Still for that read-out and setting: the figure for “human IgG2 anti-mouse CD40 surface displayed antibody, Fc mutant S298G” is 1.2.

B1: human IgG2 anti-mouse CD40 surface displayed antibody, Fc mutant H268S (antibody, name in EU numbering)
light chain (with the P2A rest): DTVLTQSPALAVSPGERVTISCRASDSVSTLMHWYQQKPGQQPKLLIYLASHLESGVPARFSGSGSGTDFTLTIDPVEADDTATYYCQQSWNDPWTFGGGTKLELKRTVAAPSVFIFPPSDEQLKSGTASVVCLLNNFYPREAKVQWKVDNALQSGNSQESVTEQDSKDSTYSLSSTLTLSKADYEKHKVYACEVTHQGLSSPVTKSFNRGECGSGATNFSLLKQAGDVEENPG
heavy chain: EVQLVESDGGLVQPGRSLKLPCAASGFTFSDYYMAWVRQAPTKGLEWVASISYDGSSTYYRDSVKGRFTISRDNAKSTLYLQMDSLRSEDTATYYCGRHSSYFDYWGQGVMVTVSSASTKGPSVFPLAPCSRSTSESTAALGCLVKDYFPEPVTVSWNSGALTSGVHTFPAVLQSSGLYSLSSVVTVPSSNFGTQTYTCNVDHKPSNTKVDKTVERKCCVECPPCPAPPVAGPSVFLFPPKPKDTLMISRTPEVTCVVVDVSSEDPEVQFNWYVDGVEVHNAKTKPREEQFNSTFRVVSVLTVVHQDWLNGKEYKCKVSNKGLPAPIEKTISKTKGQPREPQVYTLPPSREEMTKNQVSLTCLVKGFYPSDIAVEWESNGQPENNYKTTPPMLDSDGSFFLYSKLTVDKSRWQQGNVFSCSVMHEALHNHYTQKSLSLSPGKLEPPPSTVSNMATVAVLVVLGAAIVTGAVVAFVMKMRRRNTGGKGGDYALAPGSQTSDLSLPDCKVMVHDPHSLA
notes: as m1; positions are Eu numbers; copies: 2 + 2
Consider B1, for which, in experiment [2], the “Enrichment factor (percentage after sorting/percentage before sorting)” value was 7.85 and the “Increased factor (mutation enrichment factor/wild-type enrichment factor)” value was 6.95.

B2: human IgG2 anti-mouse CD40 surface displayed antibody, Fc mutant L328V (antibody, name in EU numbering)
light chain (with the P2A rest): DTVLTQSPALAVSPGERVTISCRASDSVSTLMHWYQQKPGQQPKLLIYLASHLESGVPARFSGSGSGTDFTLTIDPVEADDTATYYCQQSWNDPWTFGGGTKLELKRTVAAPSVFIFPPSDEQLKSGTASVVCLLNNFYPREAKVQWKVDNALQSGNSQESVTEQDSKDSTYSLSSTLTLSKADYEKHKVYACEVTHQGLSSPVTKSFNRGECGSGATNFSLLKQAGDVEENPG
heavy chain: EVQLVESDGGLVQPGRSLKLPCAASGFTFSDYYMAWVRQAPTKGLEWVASISYDGSSTYYRDSVKGRFTISRDNAKSTLYLQMDSLRSEDTATYYCGRHSSYFDYWGQGVMVTVSSASTKGPSVFPLAPCSRSTSESTAALGCLVKDYFPEPVTVSWNSGALTSGVHTFPAVLQSSGLYSLSSVVTVPSSNFGTQTYTCNVDHKPSNTKVDKTVERKCCVECPPCPAPPVAGPSVFLFPPKPKDTLMISRTPEVTCVVVDVSHEDPEVQFNWYVDGVEVHNAKTKPREEQFNSTFRVVSVLTVVHQDWLNGKEYKCKVSNKGVPAPIEKTISKTKGQPREPQVYTLPPSREEMTKNQVSLTCLVKGFYPSDIAVEWESNGQPENNYKTTPPMLDSDGSFFLYSKLTVDKSRWQQGNVFSCSVMHEALHNHYTQKSLSLSPGKLEPPPSTVSNMATVAVLVVLGAAIVTGAVVAFVMKMRRRNTGGKGGDYALAPGSQTSDLSLPDCKVMVHDPHSLA
notes: as for B1
B2: in experiment [2], the “Enrichment factor (percentage after sorting/percentage before sorting)” value stood at 2.31, the “Increased factor (mutation enrichment factor/wild-type enrichment factor)” value came out at 2.04, the “Percentage after sorting/unbinding percentage” value turned out to be 25.4 and the “Percentage before sorting/unbinding percentage” value turned out to be 11.

B3: human IgG2 anti-mouse CD40 surface displayed antibody, Fc mutant L328R (antibody, name in EU numbering)
light chain (with the P2A rest): DTVLTQSPALAVSPGERVTISCRASDSVSTLMHWYQQKPGQQPKLLIYLASHLESGVPARFSGSGSGTDFTLTIDPVEADDTATYYCQQSWNDPWTFGGGTKLELKRTVAAPSVFIFPPSDEQLKSGTASVVCLLNNFYPREAKVQWKVDNALQSGNSQESVTEQDSKDSTYSLSSTLTLSKADYEKHKVYACEVTHQGLSSPVTKSFNRGECGSGATNFSLLKQAGDVEENPG
heavy chain: EVQLVESDGGLVQPGRSLKLPCAASGFTFSDYYMAWVRQAPTKGLEWVASISYDGSSTYYRDSVKGRFTISRDNAKSTLYLQMDSLRSEDTATYYCGRHSSYFDYWGQGVMVTVSSASTKGPSVFPLAPCSRSTSESTAALGCLVKDYFPEPVTVSWNSGALTSGVHTFPAVLQSSGLYSLSSVVTVPSSNFGTQTYTCNVDHKPSNTKVDKTVERKCCVECPPCPAPPVAGPSVFLFPPKPKDTLMISRTPEVTCVVVDVSHEDPEVQFNWYVDGVEVHNAKTKPREEQFNSTFRVVSVLTVVHQDWLNGKEYKCKVSNKGRPAPIEKTISKTKGQPREPQVYTLPPSREEMTKNQVSLTCLVKGFYPSDIAVEWESNGQPENNYKTTPPMLDSDGSFFLYSKLTVDKSRWQQGNVFSCSVMHEALHNHYTQKSLSLSPGKLEPPPSTVSNMATVAVLVVLGAAIVTGAVVAFVMKMRRRNTGGKGGDYALAPGSQTSDLSLPDCKVMVHDPHSLA
notes: as for B1
Turning to B3, in experiment [2], the “Enrichment factor (percentage after sorting/percentage before sorting)” value turned out to be 5.3, the “Increased factor (mutation enrichment factor/wild-type enrichment factor)” value was 4.69, the “Percentage after sorting/unbinding percentage” value was 30.8 and the “Percentage before sorting/unbinding percentage” value is 5.82.

B4: human IgG2 anti-mouse CD40 surface displayed antibody, Fc mutant P271G/S298N (antibody, name in EU numbering)
light chain (with the P2A rest): DTVLTQSPALAVSPGERVTISCRASDSVSTLMHWYQQKPGQQPKLLIYLASHLESGVPARFSGSGSGTDFTLTIDPVEADDTATYYCQQSWNDPWTFGGGTKLELKRTVAAPSVFIFPPSDEQLKSGTASVVCLLNNFYPREAKVQWKVDNALQSGNSQESVTEQDSKDSTYSLSSTLTLSKADYEKHKVYACEVTHQGLSSPVTKSFNRGECGSGATNFSLLKQAGDVEENPG
heavy chain: EVQLVESDGGLVQPGRSLKLPCAASGFTFSDYYMAWVRQAPTKGLEWVASISYDGSSTYYRDSVKGRFTISRDNAKSTLYLQMDSLRSEDTATYYCGRHSSYFDYWGQGVMVTVSSASTKGPSVFPLAPCSRSTSESTAALGCLVKDYFPEPVTVSWNSGALTSGVHTFPAVLQSSGLYSLSSVVTVPSSNFGTQTYTCNVDHKPSNTKVDKTVERKCCVECPPCPAPPVAGPSVFLFPPKPKDTLMISRTPEVTCVVVDVSHEDGEVQFNWYVDGVEVHNAKTKPREEQFNNTFRVVSVLTVVHQDWLNGKEYKCKVSNKGLPAPIEKTISKTKGQPREPQVYTLPPSREEMTKNQVSLTCLVKGFYPSDIAVEWESNGQPENNYKTTPPMLDSDGSFFLYSKLTVDKSRWQQGNVFSCSVMHEALHNHYTQKSLSLSPGKLEPPPSTVSNMATVAVLVVLGAAIVTGAVVAFVMKMRRRNTGGKGGDYALAPGSQTSDLSLPDCKVMVHDPHSLA
notes: as for B1
With B4, in experiment [3], the “Enrichment factor (after/before sorting)” value was 18 and the “Increased factor a (enrichment factor/wild-type enrichment factor)” value was 24. Besides, in experiment [4], the “Increased factor 2 c Site 1 (combined/point mutation)” value is 5.1. Besides, in experiment [2], the “Enrichment factor (percentage after sorting/percentage before sorting)” value was found to be 2.31, the “Increased factor (mutation enrichment factor/wild-type enrichment factor)” value worked out at 2.04, the “Percentage after sorting/unbinding percentage” value turned out to be 11.9 and the “Percentage before sorting/unbinding percentage” value came out at 5.17.

B5: human IgG2 anti-mouse CD40 surface displayed antibody, Fc mutant V266A/P271G (antibody, name in EU numbering)
light chain (with the P2A rest): DTVLTQSPALAVSPGERVTISCRASDSVSTLMHWYQQKPGQQPKLLIYLASHLESGVPARFSGSGSGTDFTLTIDPVEADDTATYYCQQSWNDPWTFGGGTKLELKRTVAAPSVFIFPPSDEQLKSGTASVVCLLNNFYPREAKVQWKVDNALQSGNSQESVTEQDSKDSTYSLSSTLTLSKADYEKHKVYACEVTHQGLSSPVTKSFNRGECGSGATNFSLLKQAGDVEENPG
heavy chain: EVQLVESDGGLVQPGRSLKLPCAASGFTFSDYYMAWVRQAPTKGLEWVASISYDGSSTYYRDSVKGRFTISRDNAKSTLYLQMDSLRSEDTATYYCGRHSSYFDYWGQGVMVTVSSASTKGPSVFPLAPCSRSTSESTAALGCLVKDYFPEPVTVSWNSGALTSGVHTFPAVLQSSGLYSLSSVVTVPSSNFGTQTYTCNVDHKPSNTKVDKTVERKCCVECPPCPAPPVAGPSVFLFPPKPKDTLMISRTPEVTCVVVDASHEDGEVQFNWYVDGVEVHNAKTKPREEQFNSTFRVVSVLTVVHQDWLNGKEYKCKVSNKGLPAPIEKTISKTKGQPREPQVYTLPPSREEMTKNQVSLTCLVKGFYPSDIAVEWESNGQPENNYKTTPPMLDSDGSFFLYSKLTVDKSRWQQGNVFSCSVMHEALHNHYTQKSLSLSPGKLEPPPSTVSNMATVAVLVVLGAAIVTGAVVAFVMKMRRRNTGGKGGDYALAPGSQTSDLSLPDCKVMVHDPHSLA
notes: as for B1
Consider B5, for which, in experiment [3], the “Enrichment factor (after/before sorting)” value came out at 8.63 and the “Increased factor a (enrichment factor/wild-type enrichment factor)” value was 15. Besides, the “Increased factor 2 c Site 2 (combined/point mutation)” value in experiment [4] was 3.2.

B6: human IgG2 anti-mouse CD40 surface displayed antibody, Fc mutant L328G (antibody, name in EU numbering)
light chain (with the P2A rest): DTVLTQSPALAVSPGERVTISCRASDSVSTLMHWYQQKPGQQPKLLIYLASHLESGVPARFSGSGSGTDFTLTIDPVEADDTATYYCQQSWNDPWTFGGGTKLELKRTVAAPSVFIFPPSDEQLKSGTASVVCLLNNFYPREAKVQWKVDNALQSGNSQESVTEQDSKDSTYSLSSTLTLSKADYEKHKVYACEVTHQGLSSPVTKSFNRGECGSGATNFSLLKQAGDVEENPG
heavy chain: EVQLVESDGGLVQPGRSLKLPCAASGFTFSDYYMAWVRQAPTKGLEWVASISYDGSSTYYRDSVKGRFTISRDNAKSTLYLQMDSLRSEDTATYYCGRHSSYFDYWGQGVMVTVSSASTKGPSVFPLAPCSRSTSESTAALGCLVKDYFPEPVTVSWNSGALTSGVHTFPAVLQSSGLYSLSSVVTVPSSNFGTQTYTCNVDHKPSNTKVDKTVERKCCVECPPCPAPPVAGPSVFLFPPKPKDTLMISRTPEVTCVVVDVSHEDPEVQFNWYVDGVEVHNAKTKPREEQFNSTFRVVSVLTVVHQDWLNGKEYKCKVSNKGGPAPIEKTISKTKGQPREPQVYTLPPSREEMTKNQVSLTCLVKGFYPSDIAVEWESNGQPENNYKTTPPMLDSDGSFFLYSKLTVDKSRWQQGNVFSCSVMHEALHNHYTQKSLSLSPGKLEPPPSTVSNMATVAVLVVLGAAIVTGAVVAFVMKMRRRNTGGKGGDYALAPGSQTSDLSLPDCKVMVHDPHSLA
notes: as for B1
Regarding B6, in experiment [2], the “Enrichment factor (percentage after sorting/percentage before sorting)” value was found to be 3.01 and the “Increased factor (mutation enrichment factor/wild-type enrichment factor)” value worked out at 2.67.
